The target in data set [1] is T1, A13DBD WT (mouse (murine), UniProt Q62424 320-386). Nature of the data set: fluorescence anisotropy; 10 mM MgCl2; text fold changes suggest T6*C and T6*U swapped; FA: 20 mM Tris pH 7.5, 80 mM KCl, 10 mM MgCl2, 0.2 mM EDTA, 1 mM DTT, 15 C, 1 nM DNA; NMR complex: 20 mM NaPO4 pH 6.0, 5 mM MgCl2, 10% D2O, 310 K; ITC buffer not given in the material. The settings on record: protein: recombinant; tags: His-tag removed by thrombin; label: 5' 6-FAM via hexyl linker; hairpin (self-annealing).

For data set [2], the target named is T2, A13DBD V373G (mouse (murine), UniProt Q62424 320-386, V373G). Nature of the data set: fluorescence anisotropy; 10 mM MgCl2; FA: 20 mM Tris pH 7.5, 80 mM KCl, 10 mM MgCl2, 0.2 mM EDTA, 1 mM DTT, 15 C, 1 nM DNA; NMR complex: 20 mM NaPO4 pH 6.0, 5 mM MgCl2, 10% D2O, 310 K; ITC buffer not given in the material. The settings on record: protein: recombinant; tags: His-tag removed by thrombin; label: 5' 6-FAM via hexyl linker; hairpin (self-annealing).

Data set [3] concerns the target T1, A13DBD WT. Description: ITC; FA: 20 mM Tris pH 7.5, 80 mM KCl, 10 mM MgCl2, 0.2 mM EDTA, 1 mM DTT, 15 C, 1 nM DNA; NMR complex: 20 mM NaPO4 pH 6.0, 5 mM MgCl2, 10% D2O, 310 K; ITC buffer not given in the material. The following applies: protein: recombinant, tags: His-tag removed by thrombin.
Data set [4] deals with T1, A13DBD WT. Nature of the data set: fluorescence anisotropy; 10 mM MgCl2; FA: 20 mM Tris pH 7.5, 80 mM KCl, 10 mM MgCl2, 0.2 mM EDTA, 1 mM DTT, 15 C, 1 nM DNA; NMR complex: 20 mM NaPO4 pH 6.0, 5 mM MgCl2, 10% D2O, 310 K; ITC buffer not given in the material. The settings on record: protein: recombinant; tags: His-tag removed by thrombin; label: 5' 6-FAM via hexyl linker; hairpin (self-annealing).

Data set [5] concerns the target A13DBD I366A (mouse (murine), UniProt Q62424 320-386, I366A). Nature of the data set: ITC; FA: 20 mM Tris pH 7.5, 80 mM KCl, 10 mM MgCl2, 0.2 mM EDTA, 1 mM DTT, 15 C, 1 nM DNA; NMR complex: 20 mM NaPO4 pH 6.0, 5 mM MgCl2, 10% D2O, 310 K; ITC buffer not given in the material. The settings on record: protein: recombinant; tags: His-tag removed by thrombin; blunt.
Data set [6] deals with A13DBD V373A (mouse (murine), UniProt Q62424 320-386, V373A). Described as above. The settings on record: protein: recombinant; tags: His-tag removed by thrombin; blunt.
Data set [7] has as its target A13DBD F344A (mouse (murine), UniProt Q62424 320-386, F344A). Nature of the data set: ITC; does not affect DNA binding; FA: 20 mM Tris pH 7.5, 80 mM KCl, 10 mM MgCl2, 0.2 mM EDTA, 1 mM DTT, 15 C, 1 nM DNA; NMR complex: 20 mM NaPO4 pH 6.0, 5 mM MgCl2, 10% D2O, 310 K; ITC buffer not given in the material. The settings on record: protein: recombinant; tags: His-tag removed by thrombin; blunt.

Data set [8] deals with T2, A13DBD V373G. Nature of the data set: ITC; text says 3-4-fold lower affinity; FA: 20 mM Tris pH 7.5, 80 mM KCl, 10 mM MgCl2, 0.2 mM EDTA, 1 mM DTT, 15 C, 1 nM DNA; NMR complex: 20 mM NaPO4 pH 6.0, 5 mM MgCl2, 10% D2O, 310 K; ITC buffer not given in the material. The settings on record: protein: recombinant; tags: His-tag removed by thrombin; blunt.
The target in data set [9] is A13DBD N370A (mouse (murine), UniProt Q62424 320-386, N370A). Nature of the data set: ITC; text says ~1000-fold lower affinity; FA: 20 mM Tris pH 7.5, 80 mM KCl, 10 mM MgCl2, 0.2 mM EDTA, 1 mM DTT, 15 C, 1 nM DNA; NMR complex: 20 mM NaPO4 pH 6.0, 5 mM MgCl2, 10% D2O, 310 K; ITC buffer not given in the material. The following applies: protein: recombinant; tags: His-tag removed by thrombin; blunt.

For data set [10], the target named is T2, A13DBD V373G. Description: competition; 50 nM already competes with consensus; 4 uM protein; FA: 20 mM Tris pH 7.5, 80 mM KCl, 10 mM MgCl2, 0.2 mM EDTA, 1 mM DTT, 15 C, 1 nM DNA; NMR complex: 20 mM NaPO4 pH 6.0, 5 mM MgCl2, 10% D2O, 310 K; ITC buffer not given in the material. The settings on record: protein: recombinant; tags: His-tag removed by thrombin; hairpin (self-annealing).

Data set [11] concerns the target T2, A13DBD V373G. Description: ITC; FA: 20 mM Tris pH 7.5, 80 mM KCl, 10 mM MgCl2, 0.2 mM EDTA, 1 mM DTT, 15 C, 1 nM DNA; NMR complex: 20 mM NaPO4 pH 6.0, 5 mM MgCl2, 10% D2O, 310 K; ITC buffer not given in the material. The following applies: protein: recombinant; tags: His-tag removed by thrombin; C5-A5* mismatch with strand 2 as printed.

T1 sequence (Q62424 320-386): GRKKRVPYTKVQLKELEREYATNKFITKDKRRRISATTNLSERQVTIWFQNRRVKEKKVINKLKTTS
T2 sequence (Q62424 320-386 V373G): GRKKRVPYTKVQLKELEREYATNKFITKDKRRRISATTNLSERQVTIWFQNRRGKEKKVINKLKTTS
A13DBD V373A, sequence (Q62424 320-386 V373A): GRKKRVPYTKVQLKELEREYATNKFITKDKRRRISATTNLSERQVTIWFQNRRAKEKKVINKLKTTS
A13DBD F344A, sequence (Q62424 320-386 F344A): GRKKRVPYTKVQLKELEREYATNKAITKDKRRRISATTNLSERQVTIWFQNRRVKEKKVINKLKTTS
A13DBD N370A, sequence (Q62424 320-386 N370A): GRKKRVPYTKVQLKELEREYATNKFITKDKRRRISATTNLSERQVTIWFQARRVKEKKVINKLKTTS
A13DBD I366A, sequence (Q62424 320-386 I366A): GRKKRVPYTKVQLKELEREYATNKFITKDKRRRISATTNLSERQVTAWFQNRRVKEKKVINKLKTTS

CAAATGAAATCCCCCATTTCATTG (structured_DNA) [FA T6*C]: the values for the Kd in [1] and in data set [2] were 5.95 ± 0.64 nM and 79.3 ± 6.93 nM, respectively.

B1: 11-mer T5U (dsDNA)
DNA 1: CAAAUAAAATC
DNA 2: GATTTTATTTG
modifications: deoxyuridine at T5 (DNA strand)
With B1, the Kd in data set [3] (blunt) is 14.5 nM.
As for CAAAUAAATCCCCCATTTTATTGTG (structured_DNA, deoxyuridine at position 5) [FA T5U], in data set [4], the Kd was 4.01 ± 0.28 nM.

B2: 11-mer duplex WT (dsDNA)
DNA 1: CAAATAAAATC
DNA 2: GATTTTATTTG
On to B2, for which the Kd is 43.7 nM in data set [5]; 18.7 nM in data set [6]; 7.5 nM in data set [3] (blunt); 137 nM in data set [8]; 862 nM in data set [9]. The binding result in [7] is reported as “binds”.
For the molecule CAAACAAAATCCCCCATTTTGTTTG (structured_DNA) [FA T5C], the Kd in [2] worked out at 616 ± 56.1 nM; in data set [4] it was 49.2 ± 4.97 nM.
In the same order, the values of CAAATAAAATCCCCCATTTTATTTG (structured_DNA) [FA consensus (wt)] are 56.6 ± 2.25 nM and 2.19 ± 0.06 nM.
As for TGACTGACTGACTGCCCCCCAGTCAG (structured_DNA) [Scrambled], the binding result in [10] is recorded as “binds”.

B3: 11-mer T5C (dsDNA)
DNA 1: CAAACAAAATC
DNA 2: GATTTTATTTG
As for B3, the Kd in data set [11] amounted to 617 nM; in data set [3] (C5-A5* mismatch with strand 2 as printed) it was 286 nM.

The values above are taken from publication PMC3148250, “Structural Basis for Sequence Specific DNA Binding and Protein Dimerization of HOXA13”.
